# Laboratory results: US20260146071A1, “CCR2 INHIBITORS AND METHODS OF USE” (ORION BIOTECHNOLOGY USA Corp., priority 2022, published 2026)
# Where no end group is shown, it is not given here. [ ]: non-standard residue; d: D form. Nle = CCCC[C@H](N)C(=O)O
# Biological target: T1, CCR2 (Homo sapiens, UniProt P41597)
# T1 construct: endogenous in cells; host or cells: THP-1
# T1 sequence (P41597 1-360 isoform P41597-2): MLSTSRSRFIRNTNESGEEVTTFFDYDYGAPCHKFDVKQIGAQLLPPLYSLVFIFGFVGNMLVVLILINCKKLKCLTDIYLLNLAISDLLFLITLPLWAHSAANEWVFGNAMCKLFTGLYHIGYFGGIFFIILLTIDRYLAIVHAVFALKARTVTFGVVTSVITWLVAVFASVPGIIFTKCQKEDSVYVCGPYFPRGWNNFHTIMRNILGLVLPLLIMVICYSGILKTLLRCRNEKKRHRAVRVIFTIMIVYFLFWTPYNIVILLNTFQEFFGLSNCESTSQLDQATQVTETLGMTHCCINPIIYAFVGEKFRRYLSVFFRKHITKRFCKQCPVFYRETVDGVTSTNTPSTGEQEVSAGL
# Assay: CCR2 inhibitory potency assay, calcium flux method, THP-1 cells stimulated with 100 nM CCL2
# Format: cell-based
# Settings: FIG. 5; calcium flux, THP-1 cells; read-out: IC50 (compiled data from four experiments, mean pIC50) (converted)
# Experimental: CCR2 inhibitory potency assay was determined using the calcium flux method.
# Ca^2+ flux measurements were performed using an FDSS micro-cell device ([…]). On the day of the experiment, THP-1 cells were seeded 20000 cells/well) to wells of black-walled clear-bottom 384-well plates.
# THP-1 cells were loaded with a calcium-sensitive fluorescent dye (Screen Quest™ Fluo-8 No Wash Calcium Assay Kit, AAT Bioquest) according to the manufacturer's instructions, then a first addition of either test sample dilutions or vehicle alone were added. 5 minutes later, cells were stimulated with 100 nM CCL2.
row,IC50 [nM],Molecule
1,9.8,"CC(=O)N[C@@H]1C[C@H](NC(C)(C)C)CC[C@@H]1N1CC[C@H](Nc2ncnc3cc(C(C)(C)C)nn23)C1=O [BMS-813160, reference compound]"
2,6,"CC(C)(C)N1CCN[C@@H](C(=O)N2CCN(C(=O)Nc3ccc(Cl)c(F)c3)CC2)C1 [AZD2423, reference compound]"

# Same assay, conditions: Table 3; CCR2 inhibition; read-out: mean IC50
row,IC50 [nM],Molecule
1,89.3,"CCL2 variant, N-terminal APQWAAAT, positions 1-2 absent (SEQ ID NO: 32), human CCL2 Met64Nle core [CCL2-M64Nle-2P1]"
2,155,"CCL2-M64Nle-NGS-MESR-1 (SYSWVR; also: part of CCL2 M64Nle construct, placement of chain in protein not given here)"
3,15.3,"CCL2 variant, N-terminal VPDWSQAPVT (SEQ ID NO: 18), human CCL2 Met64Nle core [CCL2-M64Nle-1P22]"
4,225,"CCL2 variant, N-terminal TPGHYRAPVT (SEQ ID NO: 39), human CCL2 Met64Nle core [CCL2-M64Nle-2P3]"
5,41.5,"CCL2-M64Nle-NGS-MESR-5 (AWGGIR; also: part of CCL2 M64Nle construct, placement of chain in protein not given here)"
6,50.2,"CCL2 variant, N-terminal SPSYTRAPVT (SEQ ID NO: 31), human CCL2 Met64Nle core [CCL2-M64Nle-2P7]"
7,167,"CCL2 variant, N-terminal (Nle)PDWNRAPVT (SEQ ID NO: 35), human CCL2 Met64Nle core [CCL2-M64Nle-NGS-MEO-1]"

# The remaining lines, values behind:
row,Molecule,IC50 [nM]
1,"CCL2 variant, N-terminal VTNPTWAPVT (SEQ ID NO: 20), human CCL2 Met64Nle core [CCL2-M64Nle-1P02-F1V]",24.6
2,"CCL2 variant, N-terminal AFSIMQAPVT (SEQ ID NO: 15), human CCL2 Met64Nle core [CCL2-M64Nle-1P8]",12
3,"CCL2 variant, N-terminal WRPHWSAPVT (SEQ ID NO: 25), human CCL2 Met64Nle core [CCL2-M64Nle-1P3]",32.8
4,"CCL2 variant, N-terminal ISWFTFNAPVT (SEQ ID NO: 22), human CCL2 Met64Nle core [CCL2-M64Nle-1P13]",31.2

# Same assay, conditions: Table 4; CCR2 inhibition; read-out: mean IC50
row,IC50 [nM],Molecule
1,1.02,"CCL2 variant, N-terminal FP(Nle)DGWRPRT (SEQ ID NO: 142), human CCL2 11-76 Met64Nle core (FP[Nle]DGWRPRT; also: fused to human CCL2 11-76 core with Met64Nle) [4P23-CCL2]"
2,0.585,"CCL2 variant, N-terminal FP(Nle)DGWHPLV (SEQ ID NO: 132), human CCL2 11-76 Met64Nle core (FP[Nle]DGWHPLV; also: followed by human CCL2 11-76 core with Met64Nle) [4P18-CCL2]"
3,0.759,"CCL2 variant, N-terminal FP(Nle)DGWRPLV (SEQ ID NO: 140), human CCL2 11-76 Met64Nle core (FP[Nle]DGWRPLV; also: fused to human CCL2 11-76 core with Met64Nle) [4P22-CCL2]"
4,1.65,"CCL2 variant, N-terminal FP(Nle)DGWRGGV (SEQ ID NO: 116), human CCL2 11-76 Met64Nle core (FP[Nle]DGWRGGV; also: followed by human CCL2 11-76 core with Met64Nle) [4P9-CCL2]"
5,0.534,"CCL2 variant, N-terminal FP(Nle)DGWQGGV (SEQ ID NO: 122), human CCL2 11-76 Met64Nle core (FP[Nle]DGWQGGV; also: followed by human CCL2 11-76 core with Met64Nle) [4P13-CCL2]"
6,1.65,"CCL2 variant, N-terminal FP(Nle)DGWGPGV (SEQ ID NO: 144), human CCL2 11-76 Met64Nle core (FP[Nle]DGWGPGV; also: followed by human CCL2 11-76 core with Met64Nle) [4P24-CCL2]"
7,2.38,"CCL2 variant, N-terminal FP(Nle)DGWRGLT (SEQ ID NO: 106), human CCL2 11-76 Met64Nle core (FP[Nle]DGWRGLT; also: followed by human CCL2 11-76 core with Met64Nle) [4P4-CCL2]"
8,1.45,"CCL2 variant, N-terminal FP(Nle)DGWRGET (SEQ ID NO: 110), human CCL2 11-76 Met64Nle core (FP[Nle]DGWRGET; also: followed by human CCL2 11-76 core with Met64Nle) [4P6-CCL2]"

# More lines, now with the values behind:
row,Molecule,IC50 [nM]
1,"CCL2 variant, N-terminal FTNPTWKPST (SEQ ID NO: 90), human CCL2 11-76 Met64Nle core (not fully specified (C-terminus); also: followed C-terminally by human CCL2 11-76 core with Met64Nle) [3P15-CCL2]",1.53
2,"CCL2 variant, N-terminal FTNPTWAPLQ (SEQ ID NO: 83), human CCL2 11-76 Met64Nle core [3P8-CCL2]",0.892
3,"CCL2 variant, N-terminal FTNPTWATHV (SEQ ID NO: 82), human CCL2 11-76 Met64Nle core [3P7-CCL2]",1.47
4,"CCL2 variant, N-terminal FTNPTWRPST (SEQ ID NO: 80), human CCL2 11-76 Met64Nle core (not fully specified (C-terminus); also: followed C-terminally by human CCL2 11-76 core with Met64Nle) [3P5-CCL2]",2.86
5,"CCL2 variant, N-terminal FTNPTWQEYS (SEQ ID NO: 92), human CCL2 11-76 Met64Nle core (not fully specified (C-terminus); also: followed C-terminally by human CCL2 11-76 core with Met64Nle) [3P17-CCL2]",1
6,"CCL2 variant, N-terminal FTNPTWDRFT (SEQ ID NO: 87), human CCL2 11-76 Met64Nle core (not fully specified (C-terminus); also: followed C-terminally by human CCL2 11-76 core with Met64Nle) [3P12-CCL2]",0.625
7,"CCL2 variant, N-terminal FTNPTWDAQV (SEQ ID NO: 77), human CCL2 11-76 Met64Nle core [3P2-CCL2]",0.883
8,"CCL2 variant, N-terminal FTNPTWDSVT (SEQ ID NO: 98), human CCL2 11-76 Met64Nle core (not fully specified (C-terminus); also: followed C-terminally by human CCL2 11-76 core with Met64Nle) [3P23-CCL2]",0.678
9,"CCL2 variant, N-terminal FTNPTWDHFV (SEQ ID NO: 88), human CCL2 11-76 Met64Nle core [3P13-CCL2]",0.437
10,"CCL2 variant, N-terminal FTNPTWDAFT (SEQ ID NO: 76), human CCL2 11-76 Met64Nle core [3P1-CCL2]",0.655
11,"CCL2 variant, N-terminal FTNPTWSGVT (SEQ ID NO: 81), human CCL2 11-76 Met64Nle core (not fully specified (C-terminus); also: followed C-terminally by human CCL2 11-76 core with Met64Nle) [3P6-CCL2]",1.27

# Same assay, conditions: compiled data from four experiments
row,fold less potent than 1P2-CCL2 [fold],Molecule
1,5.76,"CC(=O)N[C@@H]1C[C@H](NC(C)(C)C)CC[C@@H]1N1CC[C@H](Nc2ncnc3cc(C(C)(C)C)nn23)C1=O [BMS-813160, reference compound]"
2,3.53,"CC(C)(C)N1CCN[C@@H](C(=O)N2CCN(C(=O)Nc3ccc(Cl)c(F)c3)CC2)C1 [AZD2423, reference compound]"
